Results from patent US10654917B2, “Antibody molecules and peptide delivery systems for use in alzheimer's disease and related disorders” (TECHNOPHAGE, INVESTIGAÇĀO E DESENVOLVIMENTO EM …, priority 2015, dated 2020).
Several values for one entry are separate records, joined by “and”; a condition that tells them apart may be missing. Identical values can stand only once.

B1: FC5: sdAb from the literature binding BBB receptors; positive control for BBB transmigration, SEQ ID NO: 112 (protein, listed as Lama glama)
VHH: ASEVQLQASGGGLVQAGGSLRLSCAASGFKITHYTMGWFRQAPGKEREFVSRITWGGDNTFYSNSVKGRFTISRDNAKNTVYLQMNSLKPEDTADYYCAAGSTSTATPLRVDYWGKGTQVTVSSLE
modifications: /note=“#FC5”

Tests used:
[1] = Features of peptides: isoelectric point, charge; assay type: physicochemical; details: original peptide
Excerpt: Table 7 lists each peptide's name, isoelectric point (PI), charge (number of positive residues), calculated mass (in Da), and ion found; as well as the name, calculated mass, and found ion for the corresponding conjugate; and also retention times in HPLC and the partition coefficient (log Po/w). These values allowed the determination of the hydrophilic nature of peptides, where pepH1 and pepH4 were identified as the most hydrophilic peptides.

[2] = Partition coefficient Kp by intrinsic trp fluorescence; assay type: physicochemical
Description: For the pepH3, the “partition coefficient” or “affinity constant” also was determined, since this peptide intrinsically presents a tryptophan and, thus, successful administrations of the lipid compositions allowed determination of pepH3's affinity constant.
PepH2 and pepH3 are the most hydrophobic peptides (Po/w). In addition, pepH2 interacts with various lipid compositions of membrane models, while pepH3 only interacts with membranes rich in PS (a negatively charged phospholipid).

bEnd3 cells = experiment: Uptake test: cellular interaction (acid wash) and internalization (lysate); assay type: cell-based
Description: In addition to testing models of BBB, an uptake test was performed to determine the internalizing ability of the candidate peptides. BEnd3 cells were cultured in 24 well plates. At each time point, the medium containing the peptide, which had not interacted with the cells, was collected. In the next step, the cells were washed with an acidic buffer that releases peptides more strongly bound to the cell membrane (sample acid wash). Finally, the cells were lysed to release internalized peptides and to quantify the activity inside the cells. Results are showing in FIGS. 23A-23E.
FIGS. 23A-23E show percent activity of the radioisotope technetium-labelled peptides in the media, wash buffer (acid wash) and lysate, after 15 minutes, 5 hours, and 24 hours of incubation with bEnd3 cells; and values were obtained from two independent assays. […] PepM′, as well as showing high transmigration (about 50%), also appeared to become internalized and accumulated within the cells (about 13% of radioactivity in the lysate).
(§1) Table 9 summarizes results regarding uptake (internalization) and cellular interaction, as well as transmigration across an in vitro model for BBB, for peptides labelled with technetium and gallium, after 15 minutes, 5 hours, and 24-hours of incubation, based on percent recovery of radiopeptide. The Table lists the peptides, providing each peptide's name, % BBB transmigration, % cellular interaction, and % internalized, each after […], 5 hours, and 24 hours of incubation.

[3] = Biodistribution of technetium-labelled peptides; assay type: in vivo, CD1 mice; details: for excreted: after 60 min; for brain uptake: after 2 min; for brain washout: mouse, in vivo
Description: To evaluate the capacity to cross the BBB in vivo, the selected peptides, pepH1 and pepH3, were analyzed for biodistribution in CD1 mice. The peptides were labelled with technetium at a final concentration of 8.5×10^−5 M and diluted in PBS. CD1 mice were injected (iv injection, tail vein). The mice were sacrificed by cervical dislocation after 5 and 60 minutes of incubation. The tissues of interest were dissected and washed to remove excess blood, weighed, and measured for radioactivity. Technetium radioactivity of the different peptides was measured for different organs.
Initial results are presented in Table 11, where “% I.A. refers to the “% injected activity”, that is, the amount of radioactivity measured in a given organ compared to the total originally injected.
The biodistribution studies were repeated, using higher doses of each peptide, specifically, a one hundred fold increase, as well as using PepH2 as a negative control, and allowing incubation for 2 minutes and 60 minutes. Tissue biodistribution profile in percentage of injected radiopeptide activity per gram of tissue/organ was measured and results are presented in Table 12.

[4] = Stability in blood and urine after injection, HPLC; assay type: in vivo, mice; details: 5 and 60 minutes following injection
Description: Finally, stability of the peptides was determined. Urine and blood were taken from the animals after death, filtered, and analyzed by RT-HPLC. HPLC analysis was conducted to assess the stability of pepH1 and pepH3 peptides in blood and urine, 5 and 60 minutes post-administration, compared to the respective original preparations.
FIGS. 28A-28D show the profile of pepH1 and pepH3 each in its original preparation, prior to injection into the animals, and then after 5 and 60 minutes following injection in the blood and urine.

[5] = system: in vitro model of the BBB (bEnd3 cells); experiment: Transmigration of radiolabelled peptides across in vitro BBB model; assay type: in vitro ADME; details: for overpass in the control (no cells): 5 h
Description: Using the same in vitro model of the BBB described above, peptides labelled with technetium and gallium were tested for the ability to cross endothelial barrier. For each peptide, bEnd3 cells cultured on “tissue culture inserts” were incubated with 5 ρCimL^−1-labelled peptide for different incubation times: 15 min, 5 h and 24 h. As a control, the model without cells was used (Control no cells) or (Filters) and compared to models with cells (BBB) or (Cells).
FIGS. 21A-21F show the percent activity of the radioisotope technetium-labelled peptides at the apex and base after 5 hours of incubation with the in vitro model described above, using the BBB-model or no cells (as a control); and values were obtained from two independent assays. […] Moreover, the results indicated promising candidates. Specifically, for each of pepH1 and pepH3, there was an overpass of 50% in the control, compared with only 20% in the presence of a cell barrier. The translocation of pepH2 was not observed in either the control nor in the BBB model.
Results for the incubations of 15 minutes, 5 hours, and 24 hours are shown together in FIGS. 22A-22F. That is, FIGS. 22A-22F show the percent activity of the radioisotope technetium-labelled peptides at the apex and base after 15 minutes, 5 hours, and 24 hours of incubation with the in vitro model described above, using the BBB-model or no cells (as a control); and values were obtained from two independent assays. Differences again were observed, confirming the integrity of the barrier, as well as identifying peptides that crossed the barrier. […] PepR′ thus was excluded from further tests.
as §1

BAP42 = target: T1, BAP42 (Homo sapiens, UniProt P05067); experiment: Thioflavin T assay of BAP42 aggregation inhibition; assay type: biochemical; details: proportions 1:5 and 1:20 sdAb:BAP42
T1 construct: “beta-amyloid peptide 42”, or “beta-amyloid peptide 1-42”
Description: Once purified and verified in recognizing BAP42 oligomers, anti-oligomer antibodies were purified were tested for their ability to inhibit aggregation of the peptide to fibrillar forms. This assay was performed using the thioflavin T (ThT), which, as discussed above, is a probe that recognizes rich “beta-sheet” secondary structures, the structure indeed characteristic of fibrillar BAP42. Accordingly, the greater aggregation inhibition by a candidate anti-oligomer sdAb, the less fibrils formed, and thus the smaller the signal emitted by ThT during the assay. Other selected anti-oligomer sdAbs show similar aggregation inhibition.
Anti-oligomers also were tested for their ability to inhibit aggregation of BAP42. This assay was performed using Thioflavin T (ThT), which, as described above, recognizes beta-sheet rich structures, characteristic of fibrillar form of BAP42, so that the ability of sdAbs to inhibit aggregation can be assessed. Specifically, the more aggregation is inhibited, the smaller the signal emitted by ThT. Two proportions were tested, namely, 1:5 (one molecule for sdAb for every 5 BAP42 molecules) and 1:20 (one molecule for sdAb for every 20 BAP42 molecules).

[6] = 140 μg (pepH1, pepH3) or 80 μg (pepH2)

T1 sequence (P05067 672-713 limits assumed): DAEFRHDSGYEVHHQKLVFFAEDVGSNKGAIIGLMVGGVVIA

Molecule	Charge (number of positive residues) [1]	PI (isoelectric point) [1]	where the radiopeptide is found in the uptake test (media, acid wash, lysate) (bEnd3 cells; 99mTc)	Cellular interaction (bEnd3 cells; 99mTc, 0.25 hours) [%]	Internalization (bEnd3 cells; 99mTc, 0.25 hours) [%]	Cellular interaction (bEnd3 cells; 99mTc, 5 hours) [%]	Internalization (bEnd3 cells; 99mTc, 5 hours) [%]	Cellular interaction (bEnd3 cells; 99mTc, 24 hours) [%]	Internalization (bEnd3 cells; 99mTc, 24 hours) [%]	Cellular interaction (bEnd3 cells; GaCl3, 0.25 hours) [%]	Internalization (bEnd3 cells; GaCl3, 0.25 hours) [%]	Cellular interaction (bEnd3 cells; GaCl3, 5 hours) [%]	Internalization (bEnd3 cells; GaCl3, 5 hours) [%]	Cellular interaction (bEnd3 cells; GaCl3, 24 hours) [%]	Internalization (bEnd3 cells; GaCl3, 24 hours) [%]	excreted [3, 6] [%]	brain uptake [3]	brain washout [3]	stability in blood and urine [4]	BBB transmigration ([5]; 99mTc, 0.25 hours) [%]	further results
AGILKRW (Dengue virus 2; /note=“#PepH3 (PEP+)”)	2	11	mainly remained in the incubation medium	1.50 ± 0.1	0.15 ± 0.1	1.15 ± 0.1	0.15 ± 0.1	0.60 ± 0.1	0.35 ± 0.2	0.26 ± 0.0	0.03 ± 0.0	0.73 ± 0.0	0.12 ± 0.0	0.60 ± 0.1	0.30 ± 0.1	36	rapid brain uptake	rapid brain washout	stable in the blood and urine	2.70 ± 0.0	affinity constant for POPC:POPS (1:4) relative to other lipid compositions [2]: 5 times; Kp ± SD ([2]; Lipidic membrane POPC:POPS (1:4)): 1,558 and 1,558 ± 216; Kp ± SD ([2]; Lipidic membrane POPC:POPS (3:2)): 455 ± 46; Kp ± SD ([2]; Lipidic membrane POPC:POPS (4:1)): 324 and 342 ± 102; radioactivity in the brain ([3]; 140 μg (pepH1, pepH3) or 80 μg (pepH2), 2 min): 0.31% and 0.37%; overpass in the control (no cells) ([5]; 99mTc): 50%; BBB transmigration ([5]; 99mTc, 5 hours): 9.16 ± 6.5%; BBB transmigration ([5]; 99mTc, 5 hours, listed as pepH3): 20%; BBB transmigration ([5]; 99mTc, 24 hours): 67.23 ± 1.2%; BBB transmigration ([5]; 99mTc, 24 hours, listed as pepH3): about 70%; BBB transmigration ([5]; GaCl3, 0.25 hours): 1.87 ± 0.3%; BBB transmigration ([5]; GaCl3, 5 hours): 26.47 ± 0.4%; BBB transmigration ([5]; GaCl3, 24 hours): 72.63 ± 0.7%
VQQLTKRFSL (Dengue virus 2; /note=“#PepH1”)	2	11	mainly remained in the incubation medium	0.63 ± 0.1	0.16 ± 0.0	0.30 ± 0.0	0.10 ± 0.0	0.38 ± 0.1	0.12 ± 0.0	0.25 ± 0.0	0.00 ± 0.0	0.80 ± 0.3	0.10 ± 0.0	0.62 ± 0.0	0.16 ± 0.0	32.7	rapid brain uptake	rapid brain washout	stable in the blood and urine	3.75 ± 0.5	overpass in the control (no cells) ([5]; 99mTc): 50%; BBB transmigration ([5]; 99mTc, 5 hours): 24.3 ± 0.4%; BBB transmigration ([5]; 99mTc, 5 hours, listed as pepH1): 20%; BBB transmigration ([5]; 99mTc, 24 hours): 73.83 ± 9.4%; BBB transmigration ([5]; 99mTc, 24 hours, listed as pepH1): about 70%; BBB transmigration / translocation (summary of Table 9) ([5]; 24 h, both types of markings): about 70%; BBB transmigration ([5]; GaCl3, 0.25 hours): 1.13 ± 0.2%; BBB transmigration ([5]; GaCl3, 5 hours): 21.56 ± 0.4%; BBB transmigration ([5]; GaCl3, 24 hours): 71.47 ± 3.7%
B1	–	–	–	–	–	–	–	–	–	–	–	–	–	–	–	–	–	–	–	–	inhibition of BAP42 fibrillization (ThT signal) (BAP42): do not inhibit fibrillization
